In article PMC3299731 (PLoS ONE, 2012):

Tests used:
[1] = target: the molecule itself; test: SEC; purified homomeric 6×His-translin proteins on Superdex 200 10/300 GL calibrated with molecular weight markers (29-440 kDa); octamer
translin [2] = target: T1, translin (human, UniProt Q15631 1-228); test: EMSA; 50 nM octamer, 100 nM DNA; 25 mM Tris-HCl pH 8.0, 100 mM NaCl, 1 mM EDTA, 30 min; temperature not stated; 4.5% native PAGE in 0.5x TBE; conditions: protein: recombinant; tags: N-terminal 6xHis; chain copies: 8; label: 5'-32P (unlabeled in agarose EMSA)
translin [3] = target: T1, translin; test: UV-laser crosslinking (248 nm); 50 pmol each in 50 uL; 25 mM Tris-HCl pH 8.0, 100 mM NaCl, 1 mM EDTA, 30 min; temperature not stated; 4.5% native PAGE in 0.5x TBE; conditions: protein: recombinant; tags: N-terminal 6xHis; chain copies: 8; label: 5'-32P (unlabeled in agarose EMSA)

Binder	stoichiometry N [1]	binding result (translin [2])	binding result (translin [3])
Mutant of basic-2 motif of human translin, homomeric, N-terminal 6×His tag (natural protein, UniProt Q15631 1-228, looked up, human translin with the B2 motif mutated, expressed from pQE9-translinB2; also called translinB2; translinB2 mutant; source: E. coli BL21(DE3), pQE9-translinB2, purified (Ni-IDA, Q-sepharose, Superdex 200); not shown: 6×His, N-terminal, kept) MSVSEIFVELQGFLAAEQDIREEIRKVVQSLEQTAREILTLLQGVHQGAGFQDIPKRCLKAREHFGTVKTHLTSLKTKFPAEQYYTFNENWRFVLQRLVFLAAFVVYLETETLVTREAVTEILGIEPDREKGFHLDVEDYLSGVLILASELSRLSVNSVTAGDYSRPLHISTFINELDSGFRLLNLKNDSLRKRYDGLKYDVKKVEEVVYDLSIRGFNKETAAACVEK	8		
Mutant of basic-3 motif of human translin, homomeric, N-terminal 6×His tag (natural protein, UniProt Q15631 1-228, looked up, human translin with the B3 motif mutated, expressed from pQE9-translinB3; also called translinB3; translinB3 mutant; source: E. coli BL21(DE3), pQE9-translinB3, purified (Ni-IDA, Q-sepharose, Superdex 200); not shown: 6×His, N-terminal, kept) MSVSEIFVELQGFLAAEQDIREEIRKVVQSLEQTAREILTLLQGVHQGAGFQDIPKRCLKAREHFGTVKTHLTSLKTKFPAEQYYRFHEHWRFVLQRLVFLAAFVVYLETETLVTREAVTEILGIEPDREKGFHLDVEDYLSGVLILASELSRLSVNSVTAGDYSRPLHISTFINELDSGFRLLNLKNDSLTNSNDGLKYDVKKVEEVVYDLSIRGFNKETAAACVEK	8		
GCCCTCCTGCCCTCCTTCCGCGGG (ssDNA) [Bcl-CL1 24-mer]		binds	binds
